Measured values from US20240270866A1 (Alector, published 2024).
Substitutions are numbered along the chain they refer to.

T1: mouse SIRPA overexpressed on CHO cells (mouse, UniProt P97797 32-513)
T1 construct: also called CHO-muSIRPA
T1 sequence: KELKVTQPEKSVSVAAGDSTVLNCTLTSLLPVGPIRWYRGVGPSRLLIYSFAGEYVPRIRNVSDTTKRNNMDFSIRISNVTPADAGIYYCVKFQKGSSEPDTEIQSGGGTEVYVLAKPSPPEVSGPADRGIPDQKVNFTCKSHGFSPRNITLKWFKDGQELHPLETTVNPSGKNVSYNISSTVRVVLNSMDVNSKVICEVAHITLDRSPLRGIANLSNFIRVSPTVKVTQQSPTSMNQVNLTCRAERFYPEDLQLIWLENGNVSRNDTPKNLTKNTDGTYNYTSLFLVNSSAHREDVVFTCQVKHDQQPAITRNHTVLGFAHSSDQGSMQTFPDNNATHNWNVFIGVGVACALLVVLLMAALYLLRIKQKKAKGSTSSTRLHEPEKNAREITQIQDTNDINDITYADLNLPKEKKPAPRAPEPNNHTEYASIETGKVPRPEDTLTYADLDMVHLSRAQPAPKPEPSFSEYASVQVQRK

T2: Mouse SIRPA D1 Fc (mouse, UniProt P97797 32-150, limits assumed)
T2 sequence: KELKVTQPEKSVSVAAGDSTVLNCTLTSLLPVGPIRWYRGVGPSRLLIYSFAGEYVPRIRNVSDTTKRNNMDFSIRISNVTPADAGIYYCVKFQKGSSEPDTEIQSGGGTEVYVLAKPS

B1: SA-39 Fab (Fab, V domains shown)
VH: QVQLVQSGAEVKKPGASVKVSCKASGYTFTSYYMVWVRQAPGQGLEWMGIINPSGGSTSYAQKFQGRVTMTRDTSTSTVYMELSSLRSEDTAVYYCAREGGYGYRAYPYGMDVWGQGTTVTVSS
VL: DIQMTQSPSSLSASVGDRVTITCQASQDISNSLNWYQQKPGKAPKLLIYDASNLETGVPSRFSGSRSGTDFTFTISSLQPEDIATYYCQQVIILPLTFGGGTKVEIK
notes: papain Fab
B2: SA-36 Fab (Fab, V domains shown)
VH: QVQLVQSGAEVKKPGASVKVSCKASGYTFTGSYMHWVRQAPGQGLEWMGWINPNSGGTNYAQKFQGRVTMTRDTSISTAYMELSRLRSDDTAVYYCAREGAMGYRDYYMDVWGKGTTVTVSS
VL: EIVLTQSPATLSLSPGERATITCQASQDISSYLAWYQQKPGQAPRLLIYDASNRATGIPARFSGSGSGTDFTLTISSLEPEDFAVYYCQQRTHYPWTFGGGTKVEIK
notes: papain Fab
B3: SA-56 (antibody, V domains shown)
VH: EVQLVESGGGLVKPGGSLRLSCAASGFTFSSYSMNWVRQAPGKGLEWVSSISSSSSYIYYADSVKGRFTISRDNAKNSLYLQMNSLRAEDTAVYYCARGVETYSGPNWFDPWGQGTLVTVSS
VL: DIQMTQSPSSVSASVGDRVTITCRASQGISSWLAWYQQKPGKAPKLLIYAASSLQSGVPSRFSGSGSGTDFTLTISSLQPEDFATYYCQQAIYFPITFGGGTKVEIK
notes: IgG; also called SA-56 (parental)
B4: SA-56-90 Fab (Fab, V domains shown)
VH: QVQLVESGGGVVQPGRSLRLSCAASGSTFSHYGMSWVRQAPGKGLEWVASIWVDGSNKYYADSVKGRFTISRDNSKNTLYLQMDSLRAEDTAVYYCARGVETYSGPNWFDPWGQGTLVTVSS
VL: B3 VL
notes: papain Fab; also called SA-90
B5: SA-56 Fab (Fab, V domains shown)
VH: B3 VH
VL: B3 VL
notes: papain Fab; also called SA-56 (parental)
B6: SA-56-94 Fab (Fab, V domains shown)
VH: B4 VH with Q1E, S27F, H31Y, D84N, R98V, V100T
VL: B3 VL
notes: papain Fab; also called SA-94
B7: SA-56-93 Fab (Fab, V domains shown)
VH: B4 VH with Q1E, V5L, S27F, H31Y, T78A, D84N, R98V, G99S, V100R
VL: B3 VL
notes: papain Fab
B8: SA-56-92 Fab (Fab, V domains shown)
VH: B4 VH with Q1E, S27F, H31Y, R98T
VL: B3 VL
notes: papain Fab
B9: SA-56-91 Fab (Fab, V domains shown)
VH: B4 VH with Q1E, S27F, S30A, S35A, D84N, R98T, G99A
VL: B3 VL
notes: papain Fab
B10: SA-56-96 Fab (Fab, V domains shown)
VH: EVQLLESGGGVVQPGRSLRLSCAASGFTFSSYAMGWVRQAPGKGLEWVAVIWVDGSLKYYADSVKGRFTISRDNSKNTLYLQMNSLRAEDTAVYYCATGRETYSGPNWFDPWGQGTLVTVSS
VL: B3 VL
notes: papain Fab
B11: SA-56-95 Fab (Fab, V domains shown)
VH: B10 VH with S30A, S31H, A33G, G35A, L57P, T98V, G99A
VL: B3 VL
notes: papain Fab
B12: SA-16 Fab (Fab, V domains shown)
VH: QVQLQQWGAGLLKPSETLSLTCAVYGGSFSGYYWSWIRQPPGKGLEWIGEIDHSGSTNYNPSLKSRVTISVDTSKNQFSLKLSSVTAADTAVYYCARDLGPPGPHLDVWGQGTMVTVSS
VL: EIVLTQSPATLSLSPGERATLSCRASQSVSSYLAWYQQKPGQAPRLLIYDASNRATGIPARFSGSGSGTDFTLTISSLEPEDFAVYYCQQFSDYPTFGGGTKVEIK
notes: papain Fab
B13: SA-28 Fab (Fab, V domains shown)
VH: QVQLQESGPGLVKPSQTLSLTCTVSGGSISSGGYYWSWIRQHPGKGLEWIGNIYYSGSTYYNPSLKSRVTISVDTSKNQFSLKLSSVTAADTAVYYCARDSDTSWGGFDYWGQGTLVTVSS
VL: EIVLTQSPGTLSLSPGERATLSCRASQSVRSSYLAWYQQKPGQAPRLLIYGASSRATGIPDRFSGSGSGTDFTLTISRLEPEDFAVYYCQQAGVSPYTFGGGTKVEIK
notes: papain Fab
B14: SA-38 Fab (Fab, V domains shown)
VH: QVQLQESGPGLVKPSQTLSLTCTVSGGSISSGGYYWSWIRQHPGKGLEWIGSIYYSGSTYYNPSLKSRVTISVDTSKNQFSLKLSSVTAADTAVYYCAREGAYSLYVNWFDPWGQGTLVTVSS
VL: EIVMTQSPATLSVSPGERATLSCRASQSVSSSLAWYQQKPGQAPRLLIFGASTRATGIPARFSGSGSGTEFTLTISSLQSEDFAVYYCQQYDNYPPITFGGGTKVEIK
notes: papain Fab
B15: SA-35 Fab (Fab, V domains shown)
VH: QVQLVQSGAEVKKPGASVKVSCKASGYTFTSYYMHWVRQAPGQGLEWMGIINPSGGSTSYAQKFQGRVTMTRDTSTSTVYMELSSLRSEDTAVYYCAREAGYDIKGFDYWGQGTLVTVSS
VL: DIQMTQSPSTLSASVGDRVTITCRASQSISSWLAWYQQKPGKAPKLLIYKASSLESGVPSRFSGSGSGTEFTLTISSLQPDDFATYYCQQYGSFPLTFGGGTKVEIK

Legend:
[1] = molecular target: T3, human SIRPA Fc fusion antigen (human, UniProt P78324 31-373); assay: ForteBio Fab monovalent
T3 construct: heterologous signal peptide; not shown: human IgG1 Fc

[2] = molecular target: T1, mouse SIRPA overexpressed on CHO cells; assay: flow, CHO-muSIRPA;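 as to relative MFI: antibody binding measured by flow cytometry: cells stained with 1 ug/ml test antibody for 1 h on ice, detected with PE-labelled secondary antibody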
Human SIRPA D1 Fc = molecular target: T4, Human SIRPA D1 Fc (human, UniProt P78324 32-137); assay: ForteBio IgG avid;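 also: antibody IgG captured on AHQ biosensors, then 100 nM Fc-fused SIRP antigen applied for 3 min, followed by 3 min buffer dissociation, kinetics fitted to a 1:1 model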
T4 construct: not shown: human IgG1 Fc

Mouse SIRPA D1 Fc = molecular target: T2, Mouse SIRPA D1 Fc; assay: ForteBio IgG avid;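 also: antibody IgG captured on AHQ biosensors, then 100 nM Fc-fused SIRP antigen applied for 3 min, followed by 3 min buffer dissociation, kinetics fitted to a 1:1 model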
Human SIRPb D1 Fc = Human SIRPb D1 Fc (human, UniProt O00241 30-148, limits assumed); assay: ForteBio IgG avid;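 also: antibody IgG captured on AHQ biosensors, then 100 nM Fc-fused SIRP antigen applied for 3 min, followed by 3 min buffer dissociation, kinetics fitted to a 1:1 model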
Chain of Human SIRPb D1 Fc (O00241 30-148 limits assumed): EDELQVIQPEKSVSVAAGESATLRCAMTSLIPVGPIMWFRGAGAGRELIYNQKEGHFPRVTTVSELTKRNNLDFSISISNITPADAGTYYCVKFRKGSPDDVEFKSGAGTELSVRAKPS

[3] = molecular target: T5, human SIRPA overexpressed on CHO cells (human, UniProt P78324 31-504); assay: flow, CHO-huSIRPA;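 also: Anti-SIRPA antibodies applied at 1 µg/mL for 1 h on ice, binding read by flow cytometry using a PE-labelled secondary antibody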
T5 construct: also called CHO-huSIRPA
Experimental: (§1) Initial characterization of anti-SIRPA antibodies of the present disclosure involved determining their ability to bind cell lines overexpressing human or mouse SIRPA. Cells were harvested, plated at 10⁶/ml in a 96 well plate, washed, and incubated in 100 ul PBS containing 1 ug/ml Mab for 1 hour in ice. Cells were then washed twice and incubated in 100 ul PBS containing 5 ug/ml PE-conjugated secondary antibody for 30 minutes in ice. Cells were washed twice in cold PBS and acquired on a BD FACS Canto. Data analysis and calculation of mean fluorescence intensity (MFI) values or % positive cells was performed with FlowJo® (TreeStar) software version 10.0.7.

[4] = molecular target: T1, mouse SIRPA overexpressed on CHO cells; assay: flow, CHO-muSIRPA; remark: listed apart in the source;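 as to relative MFI: antibody binding measured by flow cytometry: cells stained with 1 ug/ml test antibody for 1 h on ice, detected with PE-labelled secondary antibody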
Experimental: as §1

[5] = molecular target: T3, human SIRPA Fc fusion antigen; assay: ForteBio IgG avid;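 also: ForteBio sensor-based avid binding of anti-SIRPA antibodies in IgG format, with the binding partner in solution at 100 nM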
Experimental: The affinities of the anti-SIRPA antibodies were determined by measuring KD values by ForteBio and MSD. […] Briefly, ForteBio affinity measurements were performed by loading immunoglobulins (IgGs) on-line onto AHQ sensors. Sensors were equilibrated off-line in assay buffer for 30 min and then monitored on-line for 60 seconds for baseline establishment. For avid binding measurement, sensors with loaded IgGs were exposed to 100 nM antigen (human SIRPA or SIRPβ1 Fc fusion) for 3 min, afterwards they were transferred to assay buffer for 3 min for off-rate measurement. Additional avid binding was determined by loading biotinylated SIRPA monomer on SA sensors and exposure to 100 nM IgG in solution. Monovalent binding measurements were obtained by loading human SIRPA Fc fusion antigens to AHQ sensor and followed by exposure to 100 nM anti-SIRPA antibody Fab.

[6] = molecular target: T6, human SIRPβ1 Fc fusion antigen (human, UniProt O00241 30-371); assay: ForteBio IgG avid;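 also: ForteBio sensor-based avid binding of anti-SIRPA antibodies in IgG format, with the binding partner in solution at 100 nM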
T6 construct: not shown: human IgG1 Fc
T6 sequence (O00241 30-371 limits assumed): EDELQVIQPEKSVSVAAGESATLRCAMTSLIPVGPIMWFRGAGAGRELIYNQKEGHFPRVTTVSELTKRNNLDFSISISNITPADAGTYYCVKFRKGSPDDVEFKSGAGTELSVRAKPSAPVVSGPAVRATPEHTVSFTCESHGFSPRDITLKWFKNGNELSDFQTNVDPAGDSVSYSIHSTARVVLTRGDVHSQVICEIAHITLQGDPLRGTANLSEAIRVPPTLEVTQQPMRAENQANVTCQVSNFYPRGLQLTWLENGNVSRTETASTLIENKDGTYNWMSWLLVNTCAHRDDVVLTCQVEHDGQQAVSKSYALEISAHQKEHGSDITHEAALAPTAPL

[7] = molecular target: human SIRPA-DAP12 chimera on BWZ NFAT-luciferase reporter cells (human, UniProt O43914 62-113, limits assumed); assay: cell-based or functional assay
[8] = molecular target: T3, human SIRPA Fc fusion antigen; assay: ForteBio Fab monovalent; remark: listed apart in the source
[9] = molecular target: T6, human SIRPβ1 Fc fusion antigen; assay: ForteBio Fab monovalent
[10] = molecular target: T7, biotinylated human SIRPA (monomer) (human, UniProt P78324 31-373, limits assumed, biotinylated); assay: MSD-SET, Fab, equilibrium;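 also: solution equilibrium titration, free antigen captured on antibody-coated MSD plates and detected by electrochemiluminescence with labeled streptavidin, percent free antigen versus titrated antibody fit to quadratic model for KD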
T7 construct: monomer made by IdeS cleavage of a SIRPA Fc fusion; also called recombinant human SIRPA
Experimental: Antibodies (20 nM in PBS) were coated onto standard bind MSD-ECL plates overnight at 4° C. or at room temperature for 30 min. Plates were then blocked with 1% BSA for 30 min with shaking at 700 rpm, followed by three washes with wash buffer (PBSF+0.05% Tween 20). SET samples were applied and incubated on the plates for 150s with shaking at 700 rpm followed by one wash. Antigen captured on a plate was detected with 250 ng/ml sulfotag-labeled streptavidin in PBSF by incubation on the plate for 3 min. The plates were washed three times with wash buffer and then read on the MSD Sector Imager 2400 instrument using 1× Read Buffer T with surfactant. The percent free antigen was plotted as a function of titrated antibody in Prism and fit to a quadratic equation to extract the KD. To improve throughput, liquid handling robots were used throughout MSD-SET experiments, including SET sample preparation.

[11] = molecular target: human SIRPA D40A with C-terminal V5 tag on HEK-293T cells (human, UniProt P78324 31-504); assay: flow cytometry, Fab on HEK-293T cells with the mutant
Experimental: (§2) Epitope mapping of anti-SIRPA antibodies was performed using an alanine-scanning library created by shotgun mutagenesis of the human SIRPA cDNA sequence.
(§3) Antibodies were digested to generate Fabs, after which cells were incubated with Fabs diluted in 10% normal goat serum (NGS) (Sigma-Aldrich, St. Louis, MO). Prior to library screening, primary Fab concentrations were determined using an independent immunofluorescence titration curve against cells expressing wild type SIRPA to ensure that signals were within the linear range of detection. Fabs were detected using 7.5 μg/ml AlexaFluor488-conjugated secondary antibody (Jackson ImmunoResearch Laboratories, Westgrove, PA) in 10% NGS. Cells were washed twice with PBS and resuspended in Cellstripper (Cellgro, Manassas, VA) with 0.1% BSA (Sigma-Aldrich, St. Louis, MO). In some cases, higher stringency conditions were used, including increased pH, increased temperature, and increased dissociation time. Mean cellular fluorescence was detected using the Intellicyt high throughput flow cytometer (HTFC, Intellicyt, Albuquerque, NM). Fab reactivities against each mutant clone were calculated relative to wild-type SIRPA protein reactivity by subtracting the signal from mock-transfected controls, and normalizing to the signal from wild-type SIRPA transfected controls.

[12] = molecular target: human SIRPA R54A with C-terminal V5 tag on HEK-293T cells (human, UniProt P78324 31-504); assay: as above
Experimental: as §2, §3

[13] = molecular target: human SIRPA W68A with C-terminal V5 tag on HEK-293T cells (human, UniProt P78324 31-504); assay: as above
Experimental: as §2, §3

Binder	Kd [1]	Kd [8]	binding result [9]	Kd [10]	further results
B1	100 nM	–	–	–	–
B2	2070 nM	–	–	–	–
B3	–	–	–	–	binding result [2]: no binding (tested: 1 ug/ml); Kd (Human SIRPA D1 Fc): 2.81 nM; binding result (Mouse SIRPA D1 Fc): no binding (tested: 100 nM); binding result (Human SIRPb D1 Fc): no binding (tested: 100 nM); relative MFI [3]: 128 fold over background; relative MFI [4]: 0.583 fold over background; Kd [5]: 2.04 nM; binding result [6]: no binding (tested: 100 nM); luminescence of BWZ-huSIRPA reporter cells with SA-56 and plate-bound CD47 [7]: ~10 fold over background
B4	–	1.11 nM	no binding (tested: 100 nM)	0.17 nM	Binding Reactivity (% WT), mean [11]: 0.4 % WT; Binding Reactivity (% WT), mean [12]: 1.7 % WT; Binding Reactivity (% WT), mean [13]: 19.3 % WT
B5	301 nM	206 nM	no binding (tested: 100 nM)	–	–
B6	–	3.43 nM	no binding (tested: 100 nM)	0.88 nM	Binding Reactivity (% WT), mean [11]: 0.2 % WT; Binding Reactivity (% WT), mean [12]: 2.9 % WT; Binding Reactivity (% WT), mean [13]: 25.6 % WT
B7	–	2.34 nM	no binding (tested: 100 nM)	0.36 nM	–
B8	–	1.29 nM	no binding (tested: 100 nM)	0.35 nM	–
B9	–	1.64 nM	no binding (tested: 100 nM)	0.51 nM	–
B10	–	5.35 nM	no binding (tested: 100 nM)	1.6 nM	–
B11	–	2.98 nM	no binding (tested: 100 nM)	0.52 nM	–
B12	257 nM	–	–	–	–
B13	486 nM	–	–	–	–
B14	281 nM	–	–	–	–
B15	497 nM	–	–	–	–
